# The supplement of paper PMC11780869
# System: Bacillus subtilis
# Test: cleaved RNA product abundance (RNA/gDNA barcode ratio) relative to median wild-type variant (ratio to wild type); higher = more accumulation of the downstream cleavage product
# Method in brief: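 The B. subtilis chromosome carried reporter mRNAs, truncated aprE or tetM, containing barcoded RNase Y cleavage-site windows mutagenized using oligos with a 9% error rate. After growth in LB at 37°C from OD600 0.0003 to 0.3, cleaved RNA was gel-selected, reverse transcribed and barcode-sequenced next to genomic DNA barcodes, with UMI collapsing. Each construct's RNA:gDNA barcode ratio was scaled to the median construct with the unmutated site. That scaled ratio is reported as cleaved product abundance.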
# [1] = experiment (reporter, strain, medium): exp 2b: truncated aprE reporter, strain BJT200, cleavage site: cggR-gapA (positions -7 to +36 mutated)
# [2] = experiment (reporter, strain, medium): exp 4a: truncated aprE reporter, strain BJT201 with 2% xylose (RNase J1 expressed), cleavage site: cggR-gapA (positions -7 to +36 mutated)
# [3] = experiment (reporter, strain, medium): exp 8a: truncated aprE reporter, strain BJT201 with 2% xylose (RNase J1 expressed), cleavage site: glnRA (positions -5 to +31 mutated)
# [4] = experiment (reporter, strain, medium): exp 6: tetM reporter, strain 168, cleavage site: cggR-gapA (positions -7 to +36 mutated)
Sequence,cleaved RNA product abundance [1],cleaved RNA product abundance [2],cleaved RNA product abundance [3],cleaved RNA product abundance [4]
ACAGACGAAGGAGCCGCAAAGAAGTTATTAAGGGATAAATAATCCCTCAATATAAATGTCTCTCACTTATTTAAA,0.46,0.539,–,–
ACAGACGAAGGAGCCGCAAAGAAGTTATTAAGGGATGAATAGTCCCTAAATATAAATATCTCTCACTTATTTAAA,–,0.547,–,–
CGACATGTCCCGCTTCTTTCATTACTCCGTTAGCAACTGTCTTGCTATATACATTTACCTTTTAAGAGGAGGAAT,–,–,0.946,–
ACAGACGAAGGAGCCGCAAAGAAGTTATTAAGGGATGAATAATACCTCAAGATAAATATCTCTCACTTATTTAAA,0.102,0.124,–,–
CGACATGTCCCGCTTCTTTCATTAATCCGTTAGCAACTGTTTTACTATATAAATTTACCTTTTAAGAGGAGGAAT,–,–,0.596,–
CGACATGTCCCGCTTCTTTCATTATTCCGTGAGCAACTGTTTTGATATATACATTTACCTTTTAAGAGGAGGAAT,–,–,0.52,–
CGACATGTCCCGCTTCTTTCATTAATCCGTTAGCAACTGTTTTGTTATATACATTTATCTTTTAAGAGGAGGAAT,–,–,0.458,–
ACAGACGAAGGAGCCGCAAAAAAGTTATTAAGGGATGAATAATTCCTCAATATAAATATCTCTCACTTATTTAAA,0.68,0.814,–,–
CGACATGTCCCGCTTCTTTCATTATTCCGTTAGCACCTGTTTTGCTATATACATTTACCTTTTAAGAGGAGGAAT,–,–,1.18,–
CGACATGTCCCGCTTCTTTCATTAATCCGTTAGCAATTGTTTTGCTTTATACATTTACCTTTTAAGAGGAGGAAT,–,–,0.361,–
ACAGACGAAGGAGCCGCAGAGAAGTTATTAAGGGATGAATAATCCATCAATATAAATATCTCTCACTTATTTAAA,–,0.178,–,–
CGACATGTCCCGCTTCTTTCATTAATCCGTTAGCAACTGTTTTGCTTTATACATATACCTTTTAAGAGGAGGAAT,–,–,0.406,–
ACAGACGAAGGAGCCGCAAAGAAGTAATTAAGGAATGAATAATCCCTCAATATAAATATCTCTCACTTATTTAAA,0.0931,0.0879,–,–
ACAGACGAAGGAGCCGCAAAGAAGTTATTAAGGGATTAATAATCCCTCCATATAAATATCTCTCACTTATTTAAA,–,0.197,–,–
ACAGACGAAGGAGCCGCAAAGAAGTTATTAAGAGATGAATAATCCCTCAATATATATATCTCTCACTTATTTAAA,0.129,0.14,–,–
ACAGACGAAGGAGCCGCAAAGAAGTTATTAAAGGATGAATAATCCCTCAATATAAATGTCTCTCACTTATTTAAA,0.136,0.155,–,–
ACAGACGAAGGAGCCGCAAAGAAGTTATTAAGGGATGAATTATTCCTCAATATAAATATCTCTCACTTATTTAAA,–,0.215,–,–
ACAGACGAAGGAGCCGCAAAGAAGTTATTAAGGGAAGAATAATCCCTCAGTATAAATATCTCTCACTTATTTAAA,0.153,0.29,–,–
ACAGACGAAGGAGCCGCAAATAAGTTCTTAAGGGATGAATAATCCCTCAATATAAATATCTCTCACTTATTTAAA,0.148,0.258,–,–
ACAGACGAAGGAGCCGCAAAGAAGTTATTAAGGGATGAATAATCCCTAAATATAAAGATCTCTCACTTATTTAAA,–,0.356,–,–

Sequence,cleaved RNA product abundance [1],cleaved RNA product abundance [2],cleaved RNA product abundance [3],cleaved RNA product abundance [4]
ACAGACGAAGGAGCCGCAAAGAAGTTATTAAGGCATGAATAATCCCTCAATATAAATATCTCTCACTTATTTAAA,0.0901,0.125,–,0.124
ACAGACGAAGGAGCCGCAAAGAAATTATTAAGGGATGATTAATCCCTCAATATAAATATCTCTCACTTATTTAAA,0.816,0.599,–,–
ACAGACGAAGGAGCCGCGAAGAAGTTATTAAGGGATGAATAATCCCTCAATATAAATATCTCTCACTTATTTAAA,0.919,0.87,–,0.885
ACAGACGAAGGAGCCGCAAAGAAGTTATTAAGGGATGAATAAACCCTCAATATAAAAATCTCTCACTTATTTAAA,–,0.519,–,–
ACAGACGAAGGAGCCGCAAAGAAGTTATTTAGGGATGAATCATCCCTCAATATAAATATCTCTCACTTATTTAAA,–,0.542,–,–
CGACATGTCCCGCTTCTTTCATTAATACGTTAGCAATAGTTTTGCTATATACATTTACCTTTTAAGAGGAGGAAT,–,–,0.874,–
ACAGACGAAGGAGCCGCAAGGAAGTTATTAAGGCATGAATAATCCCTCAATATAAATATCTCTCACTTATTTAAA,–,0.148,–,–
ACAGACGAAGGAGCCGCAAAGAAGTTATTAAGGGATCAATAATCCCTCAATATAAATAACTCTCACTTATTTAAA,–,0.687,–,–
CGACATGTCCCGCTTCTTTCATTAATACGTTAGCTACTGTTTTGCTATATACATTTACCTTTTAAGAGGAGGAAT,–,–,0.562,–
ACAGACGAAGGAGCCGCAAAGAAGTTATTTAAGGGATGAATAATCCCTCAATATAAATATCTCTCACTTATTTAA,–,0.315,–,–
ACAGACGAAGGAGCCGCAAAAAAGTTATTAAGGGATGAATAATCCCTTAATATAAATATCTCTCACTTATTTAAA,–,0.394,–,–
ACAGACGAAGGAGCCGCAAAGAAGTTATTAAGGGATGAATTATCCCTGAATATAAATATCTCTCACTTATTTAAA,0.396,–,–,–
ACAGACGAAGGAGCCGCAAAGAAGTTATTAAGGGAAGAATAAACCCTCAATATAAATATCTCTCACTTATTTAAA,0.301,0.27,–,–
ACAGACGAAGGAGCCGCAAAGAAGTTATTAAGAGATGAATAATACCTCAATTTAAATATCTCTCACTTATTTAAA,–,0.0323,–,–
ACAGACGAAGGAGCCGCAAAGAAGTTACTAAGGGATGAATAATCACTCAATATAAATATCTCTCACTTATTTAAA,–,0.177,–,–
ACAGACGAAGGAGCCGCAAAGAAGTTATTAAGGGATGAATAACACCACAATATAAATATCTCTCACTTATTTAAA,–,0.0909,–,–
CGACATGTCCCGCTTCTTTCATTAATCAGTTAGCAACTGTTTTGCTATATACATTTACCATTAAGAGGAGGAATT,–,–,1.4,–
CGACATGTCCCGCTTCTTTCATTAATCCGTTAGCAACTGTTTTCCTAAATACATTTACCTTTTAAGAGGAGGAAT,–,–,0.23,–
ACAGACGAAGGAGCCGCAAAGAAGTTATTATGGGATGAATAATCCCTCAATATAAATATCTCTCACTTATTTAAA,0.302,0.407,–,–
CGACATGTCCCGCTTCTTTCATTAATCCATTAGCAACTGTTTTGCTATATACATTTACTTTTTAAGAGGAGGAAT,–,–,0.808,–

Sequence,cleaved RNA product abundance [1],cleaved RNA product abundance [2],cleaved RNA product abundance [3],cleaved RNA product abundance [4]
ACAGACGAAGGAGCCGCAAAGAAGTTATGAAGGGATGTATAATCCCTCAATATAAATATCTCTCACTTATTTAAA,–,0.311,–,–
ACAGACGAAGGAGCCGCAAAGAAGTTATTAAGGGATGAATAATCCCTCAATTTAAATGTCTCTCACTTATTTAAA,–,0.048,–,–
ACAGACGAAGGAGCCGCAAAGGAGTTATTAAAGGATGAATAATCCCTCAATATAAATATCTCTCACTTATTTAAA,0.161,0.108,–,–
ACAGACGAAGGAGCCGCAAAGAAGTTCTTAAGTGATGAATAATCCCTCAATATAAATATCTCTCACTTATTTAAA,0.0656,0.0965,–,–
ACAGACGAAGGAGCCGCAAAGAAGTTATTAAGGAATGAATAATCCCTCAATAAAAATATCTCTCACTTATTTAAA,0.0974,0.0766,–,–
ACAGACGAAGGAGCCGCAAAGAAATTATTAAAGGATGAATAATCCCTCAATATAAATATCTCTCACTTATTTAAA,0.144,0.221,–,–
ACAGACGAAGGAGCCGCGAAGAAGTTATTAAGGGATGAATAATCCGTCAATATAAATATCTCTCACTTATTTAAA,0.145,–,–,–
ACAGACGAAGGAGCCGCAAAGAAGTAAATAAGGAATGAATAATCCCTCAATATAAATATCTCTCACTTATTTAAA,–,0.0667,–,–
ACAGACGAAGGAGCCGCAAACAAGTTATTAAGGGATGACTAATCCCTCAATATAAATATCTCTCACTTATTTAAA,0.557,0.522,–,–
ACAGACGAAGGAGCCGCAAAGAAGTTATTAAGTGATGAATAATCCCTCAATACAAATATCTCTCACTTATTTAAA,0.102,0.057,–,–
ACAGACGAAGGAGCCGCAAAGAAGTTATTAAGGGTTGAATAATCCCTCAAAATAAATATCTCTCACTTATTTAAA,–,0.222,–,–
CGACATGTCCCGCTTCTTTCATTATTACGTTACCAACTATTTTGCTATATACATTTATCTTTTAAGAGGAGGAAT,–,–,0.242,–
ACAGACGAAGGAGCCGCAAAGAAGTTATTAAGGTATGAAAAATCCCTCAATATAAATATCTCTCACTTATTTAAA,0.0949,0.145,–,–
ACAGACGAAGGAGCCGCAAAGACGTTATTAAGGGATTAATAATCCCTCAATATAAATATCTCTCACTTATTTAAA,0.747,0.857,–,–
ACAGACGAAGGAGCCGCAAAGAAGTTAATAAGCGATGAATAATCCCTCAATATAAATATCTCTCACTTATTTAAA,0.0808,0.104,–,–
ACAGACGAAGGAGCCGCAAAGAAGTTATTAAGGGATGAAAAATCCCTCAATATAAACATCTCTCACTTATTTAAA,–,0.772,–,–
ACAGACGAAGGAGCCGCAAAGAAGTTATAAAGGGATGAATAATCCCTCACTATAAATATCTCTCACTTATTTAAA,–,0.322,–,–
CGACATGTCCCGCTTCTTTCATTAATCCGTTAGCAACTGTGTTTCTATATACATTTAACTTTTAAGAGGAGGAAT,–,–,0.453,–
ACAGACGAAGGAGCCGCAAAGAAGTTATTAAGGTATGAGTAATCCCTCAATATAAATATCTCTCACTTATTTAAA,–,0.224,–,–
